The data set addresses T1, CasR (Rv1776c) (UniProt O33179 1-186).
T1 sequence: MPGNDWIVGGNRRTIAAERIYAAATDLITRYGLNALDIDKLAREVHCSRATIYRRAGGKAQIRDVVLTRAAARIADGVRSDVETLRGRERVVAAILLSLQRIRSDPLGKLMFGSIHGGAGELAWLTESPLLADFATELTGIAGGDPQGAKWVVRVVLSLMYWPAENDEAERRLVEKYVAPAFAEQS
Nature of the data set: EMSA; 0-2 uM protein. The settings on record: protein: recombinant; tags: N-terminal His (pET28a); chain copies: 2.

B1: casRp4 (dsDNA)
DNA 1: AATAGCGCCCCGTTGTTAGACTAGATGA
DNA 2: TCATCTAGTCTAACAACGGGGCGCTATT
As for B1, the binding result was “no binding”.

B2: csm6p2 (dsDNA)
DNA 1: CGATCAGGAAAACAATTAGACGCAGGGGC
DNA 2: GCCCCTGCGTCTAATTGTTTTCCTGATCG
Regarding B2, the binding result was “no binding”.

The record behind these values is PMC9953421, “Regulation of CRISPR-Associated Genes by Rv1776c (CasR) in Mycobacterium tuberculosis”.
